Reference: patent US20220267407A1 (published 2022)
Substitutions are numbered along the chain they refer to.

Assays:
[1] = molecular target: T1, EBNA3C (EBV) peptide on HLA-B*44:02 (human); experiment: half-maximum IFN-gamma release; peptide titration on K562-HLA-B*44:02, ELISA after 24 h, E:T 1:1; full-length, on cells
T1 peptide: AEGGVGWRHW

[2] = molecular target: T2, EBNA3C (EBV) peptide on HLA-B*44:02 (human); experiment: cytokine release
T2 peptide: LLTSPSQSW

[3] = molecular target: T3, EBNA3C (EBV) peptide on HLA-B*44:02 (human); experiment: cytokine release
T3 peptide: WLLTSPSQSW

[4] = molecular target: T4, EBNA3C (EBV) peptide on HLA-B*44:02 (human); experiment: cytokine release
T4 peptide: SERLVPEESY

[5] = molecular target: T5, LMP1 (EBV) peptide on HLA-C*15:02 (human); experiment: half-maximum IFN-gamma release; peptide titration on K562-HLA-C*15:02, ELISA after 24 h, E:T 1:1; full-length, on cells
T5 peptide: QQNWWTLLV

[6] = molecular target: T6, LMP1 (EBV) peptide on HLA-C*15:02 (human); experiment: cytokine release
T6 peptide: YLQQNWWTL

[7] = molecular target: T7, LMP1 (EBV) peptide on HLA-C*15:02 (human); experiment: cytokine release
T7 peptide: DSLPHPQQA

[8] = molecular target: T8, LMP1 (EBV) peptide on HLA-C*15:02 (human); experiment: cytokine release
T8 peptide: NSNEGRHHL

[9] = molecular target: T9, LMP2A (EBV) peptide on HLA-A*02:01 (human); experiment: the description's statement of this TCR's peptide sensitivity; K562-HLA-A*02:01 loaded with peptide, E:T 1:1; full-length, on cells
T9 peptide: CLGGLLTMV

[10] = molecular target: T10, LMP2A (EBV) peptide on HLA-A*02:01 (human); experiment: cytokine release
T10 peptide: MCLGGLLTMV

[11] = molecular target: T9, LMP2A (EBV) peptide on HLA-A*02:01; experiment: half-maximum IFN-gamma release; peptide titration on K562-HLA-A*02:01, ELISA after 24 h, E:T 1:1; full-length, on cells
[12] = molecular target: T11, LMP1 (EBV) peptide on HLA-B*57:01 (human); experiment: half-maximum IFN-gamma release; peptide titration on K562-HLA-B*57:01, ELISA after 24 h, E:T 1:1; full-length, on cells
T11 peptide: IALYLQQNW

[13] = molecular target: T12, LMP1 (EBV) peptide on HLA-B*57:01 (human); experiment: cytokine release
T12 peptide: LAILIWMYY

[14] = molecular target: T13, LMP1 (EBV) peptide on HLA-B*57:01 (human); experiment: cytokine release
T13 peptide: LLLFLAILIW

[15] = molecular target: T14, LMP1 (EBV) peptide on HLA-B*57:01 (human); experiment: cytokine release
T14 peptide: WWTLLVDLLW

[16] = molecular target: T15, LMP1 (EBV) peptide on HLA-B*57:01 (human); experiment: cytokine release
T15 peptide: WTLLVDLLW

[17] = molecular target: T16, LMP1 (EBV) peptide on HLA-B*57:01 (human); experiment: cytokine release
T16 peptide: IIALYLQQNW

[18] = molecular target: T17, LMP1 (EBV) peptide on HLA-B*57:01 (human); experiment: cytokine release
T17 peptide: LLFLAILIW

[19] = molecular target: T18, LMP1 (EBV) peptide on HLA-B*57:01 (human); experiment: cytokine release
T18 peptide: WTLLVDLLWL

[20] = molecular target: T19, LMP1 (EBV) peptide on HLA-B*57:01 (human); experiment: cytokine release
T19 peptide: ALYLQQNWW

[21] = molecular target: T20, LMP1 (EBV) peptide on HLA-B*57:01 (human); experiment: cytokine release
T20 peptide: FLAILIWMYY

[22] = molecular target: T21, LMP1 (EBV) peptide on HLA-B*57:01 (human); experiment: cytokine release
T21 peptide: NSNEGRHHL

[23] = molecular target: T22, LMP1 (EBV) peptide on HLA-B*57:01 (human); experiment: cytokine release
T22 peptide: LAILIWMYYH

[24] = molecular target: T23, LMP1 (EBV) peptide on HLA-B*57:01 (human); experiment: cytokine release
T23 peptide: IALYLQQNWW

[25] = molecular target: T24, EBNA3C (EBV) peptide on HLA-C*06:02 (human); experiment: cytokine release
T24 peptide: WQRRYRRIY

[26] = molecular target: T25, EBNA3C (EBV) peptide on HLA-C*06:02 (human); experiment: cytokine release
T25 peptide: NLLDFVRFM

[27] = molecular target: T26, EBNA3C (EBV) peptide on HLA-C*06:02 (human); experiment: cytokine release
T26 peptide: FLRGKWQRRY

[28] = molecular target: T27, EBNA3C (EBV) peptide on HLA-C*06:02 (human); experiment: cytokine release
T27 peptide: RRRRGACVV

[29] = molecular target: T28, EBNA3C (EBV) peptide on HLA-C*06:02 (human); experiment: cytokine release
T28 peptide: ERYAREAEV

[30] = molecular target: T29, EBNA3C (EBV) peptide on HLA-C*06:02 (human); experiment: cytokine release
T29 peptide: VRFLRGKWQ

[31] = molecular target: T30, EBNA3C (EBV) peptide on HLA-C*06:02 (human); experiment: cytokine release
T30 peptide: VRFMGVMSS

[32] = molecular target: T31, EBNA3C (EBV) peptide on HLA-C*06:02 (human); experiment: cytokine release
T31 peptide: RRRGACVVY

[33] = molecular target: T32, EBNA3C (EBV) peptide on HLA-C*06:02 (human); experiment: cytokine release
T32 peptide: LHHIWQNLL

[34] = molecular target: T33, EBNA3C (EBV) peptide on HLA-C*06:02 (human); experiment: cytokine release
T33 peptide: AREAEVRFL

[35] = molecular target: T34, EBNA3C (EBV) peptide on HLA-C*06:02 (human); experiment: cytokine release
T34 peptide: VYDDDVIEV

[36] = molecular target: T35, EBNA3C (EBV) peptide on HLA-C*06:02 (human); experiment: cytokine release
T35 peptide: NRVGADSIM

[37] = molecular target: T36, EBNA3C (EBV) peptide on HLA-C*06:02 (human); experiment: cytokine release
T36 peptide: YAREAEVRF

[38] = molecular target: T37, EBNA3C (EBV) peptide on HLA-C*06:02 (human); experiment: cytokine release
T37 peptide: ARRGIKEHV

[39] = molecular target: T38, EBNA3C (EBV) peptide on HLA-C*06:02 (human); experiment: cytokine release
T38 peptide: YRRIYDLIE

[40] = molecular target: T39, EBNA3C (EBV) peptide on HLA-C*06:02 (human); experiment: cytokine release
T39 peptide: RRYRRIYDLI

[41] = molecular target: T40, EBNA3C (EBV) peptide on HLA-C*06:02 (human); experiment: cytokine release
T40 peptide: RRGACVVYD

[42] = molecular target: T41, EBNA3C (EBV) peptide on HLA-C*06:02 (human); experiment: cytokine release
T41 peptide: QRRYRRIYD

[43] = molecular target: T42, EBNA3C (EBV) peptide on HLA-C*06:02 (human); experiment: cytokine release
T42 peptide: RRGIKEHVI

[44] = molecular target: T43, EBNA3C (EBV) peptide on HLA-C*06:02 (human); experiment: cytokine release
T43 peptide: RRYRRIYDL

[45] = molecular target: T44, EBNA3C (EBV) peptide on HLA-C*06:02 (human); experiment: cytokine release
T44 peptide: YAREAEVRFL

[46] = molecular target: T45, EBNA3C (EBV) peptide on HLA-C*06:02 (human); experiment: cytokine release
T45 peptide: GCQNAARTL

[47] = molecular target: T46, EBNA3C (EBV) peptide on HLA-C*06:02 (human); experiment: cytokine release
T46 peptide: QRRYRRIYDL

[48] = molecular target: T47, EBNA3C (EBV) peptide on HLA-C*06:02 (human); experiment: cytokine release
T47 peptide: SRRRRGACV

[49] = molecular target: T48, EBNA3C (EBV) peptide on HLA-C*06:02 (human); experiment: cytokine release
T48 peptide: LRGKWQRRY

B1: TCR58 (TCR, V domains shown)
Valpha: RKEVEQDPGPFNVPEGATVAFNCTYSNSASQSFFWYRQDCRKEPKLLMSVYSSGNEDGRFTAQLNRASQYISLLIRDSKLSDSATYLCVASGDSSYKLIFGSGTRLLVRP
Vbeta: EPEVTQTPSHQVTQMGQEVILRCVPISNHLYFYWYRQILGQKVEFLVSFYNNEISEKSEIFDDQFSVERPDGSNFTLKIRSTKLEDSAMYFCASSDPLSTYNEQFFGPGTRLTVL
- EC50 of peptide [1]: 300 nM
- binding result [2]: no recognition
- binding result [3]: no recognition
- binding result [4]: no recognition

B2: TCR83 (TCR, V domains shown)
Valpha: GQNIDQPTEMTATEGAIVQINCTYQTSGFNGLFWYQQHAGEAPTFLSYNVLDGLEEKGRFSSFLSRSKGYSYLLLKELQMKDSASYLCAAVNNAGNMLTFGGGTRLMVKP
Vbeta: DTAVSQTPKYLVTQMGNDKSIKCEQNLGHDTMYWYKQDSKKFLKIMFSYNNKELIINETVPNRFSPKSPDKAHLNLHINSLELGDSAVYFCASSQGYGGPSTDTQYFGPGTRLTVL
- EC50 of peptide [5]: 2 nM
- binding result [6]: no recognition
- binding result [7]: no recognition
- binding result [8]: no recognition

B3: TCR06 (TCR, V domains shown)
Valpha: KQEVTQIPAALSVPEGENLVLNCSFTDSAIYNLQWFRQDPGKGLTSLLLIQSSQREQTSGRLNASLDKSSGRSTLYIAASQPGDSATYLCAVLMDSNYQLIWGAGTKLIIKP
Vbeta: DAGITQSPRYKITETGRQVTLMCHQTWSHSYMFWYRQDLGHGLRLIYYSAAADITDKGEVPDGYVVSRSKTENFPLTLESATRSQTSVYFCASSEDGMNTEAFFGQGTRLTVV
- EC50 of peptide [9]: ≤ 10 nM
- binding result [10]: recognises
- EC50 of peptide [11]: 6 nM

B4: TCR50 (TCR, V domains shown)
Valpha: AQSVTQLDSHVSVSEGTPVLLRCNYSSSYSPSLFWYVQHPNKGLQLLLKYTSAATLVKGINGFEAEFKKSETSFHLTKPSAHMSDAAEYFCVVMATGFQKLVFGTGTRLLVSP
Vbeta: DSGVTQTPKHLITATGQRVTLRCSPRSGDLSVYWYQQSLDQGLQFLIQYYNGEERAKGNILERFSAQQFPDLHSELNLSSLELGDSALYFCASSVTSGSDEQFFGPGTRLTVL
- EC50 of peptide [12]: 30 nM
- binding result [13]: no recognition
- binding result [14]: no recognition
- binding result [15]: no recognition
- binding result [16]: no recognition
- binding result [17]: recognises
- binding result [18]: no recognition
- binding result [19]: no recognition
- binding result [20]: recognises
- binding result [21]: no recognition
- binding result [22]: no recognition
- binding result [23]: no recognition
- binding result [24]: recognises

B5: TCR25 (TCR, V domains shown)
Valpha: B4 Valpha with V93A, M94W, A95D
Vbeta: EPEVTQTPSHQVTQMGQEVILRCVPISNHLYFYWYRQILGQKVEFLVSFYNNEISEKSEIFDDQFSVERPDGSNFTLKIRSTKLEDSAMYFCASKALADTQYFGPGTRLTVL
- EC50 of peptide [1]: 600 nM
- binding result [2]: no recognition
- binding result [3]: no recognition
- binding result [4]: no recognition

B6: TCR64 (TCR, V domains shown)
Valpha: TQLLEQSPQFLSIQEGENLTVYCNSSSVFSSLQWYRQEPGEGPVLLVTVVTGGEVKKLKRLTFQFGDARKDSSLHITAAQPGDTGLYLCAGDVDTGTASKLTFGTGTRLQVTL
Vbeta: DVKVTQSSRYLVKRTGEKVFLECVQDMDHENMFWYRQDPGLGLRLIYFSYDVKMKEKGDIPEGYSVSREKKERFSLILESASTNQTSMYLCASSLLGSGALYEQYFGPGTRLTVT
- binding result [25]: no recognition
- binding result [26]: no recognition
- binding result [27]: no recognition
- binding result [28]: no recognition
- binding result [29]: no recognition
- binding result [30]: no recognition
- binding result [31]: no recognition
- binding result [32]: no recognition
- binding result [33]: no recognition
- binding result [34]: no recognition
- binding result [35]: no recognition
- binding result [36]: no recognition
- binding result [37]: no recognition
- binding result [38]: no recognition
- binding result [39]: no recognition
- binding result [40]: no recognition
- binding result [41]: no recognition
- binding result [42]: no recognition
- binding result [43]: no recognition
- binding result [44]: no recognition
- binding result [45]: no recognition
- binding result [46]: no recognition
- binding result [47]: no recognition
- binding result [48]: no recognition
- binding result [49]: no recognition
